Data as given in article PMC12022309, “A facultative plasminogen-independent thrombolytic enzyme from Sipunculus nudus” (Nature Communications, 2025).

Key:
snFPITE-n1 (snFPITE) = molecular target: T1, snFPITE-n1 (snFPITE) (Phascolopsis gouldii, UniProt Z9UHO8WHJ2); assay: inhibition of fibrin lysis or plasminogen activation, SDS-PAGE; type: biochemical; conditions: 2.5 mM, 30 min pre-incubation; purified native snFPITE (called snFPITE-n1); enzyme also purified on Arg-Sepharose 4B
T1 construct: native, purified from S. nudus intestine / intestinal fluid by chromatography
T1 sequence (Z9UHO8WHJ2 1-239): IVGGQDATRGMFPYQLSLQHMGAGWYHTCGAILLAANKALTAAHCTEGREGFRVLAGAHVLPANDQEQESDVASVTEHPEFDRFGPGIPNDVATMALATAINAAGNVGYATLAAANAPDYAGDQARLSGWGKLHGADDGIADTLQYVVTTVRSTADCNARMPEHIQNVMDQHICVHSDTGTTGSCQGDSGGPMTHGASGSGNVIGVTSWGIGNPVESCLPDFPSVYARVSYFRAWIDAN

[1] = molecular target: fibrinogen, biotin-labeled (UniProt P02671); assay: BLI; GatorPrime (GatorPivot in the results), streptavidin (SA-XT) biosensors; biotin-labeled plasminogen or fibrinogen immobilised, snFPITE in solution; 30 °C, 1000 rpm; association 2–3 min, dissociation 2–5 min
[2] = molecular target: plasminogen, biotin-labeled (human); assay: as above

Sequence of fibrinogen, biotin-labeled (P02671 36-866, chain 1 of 3): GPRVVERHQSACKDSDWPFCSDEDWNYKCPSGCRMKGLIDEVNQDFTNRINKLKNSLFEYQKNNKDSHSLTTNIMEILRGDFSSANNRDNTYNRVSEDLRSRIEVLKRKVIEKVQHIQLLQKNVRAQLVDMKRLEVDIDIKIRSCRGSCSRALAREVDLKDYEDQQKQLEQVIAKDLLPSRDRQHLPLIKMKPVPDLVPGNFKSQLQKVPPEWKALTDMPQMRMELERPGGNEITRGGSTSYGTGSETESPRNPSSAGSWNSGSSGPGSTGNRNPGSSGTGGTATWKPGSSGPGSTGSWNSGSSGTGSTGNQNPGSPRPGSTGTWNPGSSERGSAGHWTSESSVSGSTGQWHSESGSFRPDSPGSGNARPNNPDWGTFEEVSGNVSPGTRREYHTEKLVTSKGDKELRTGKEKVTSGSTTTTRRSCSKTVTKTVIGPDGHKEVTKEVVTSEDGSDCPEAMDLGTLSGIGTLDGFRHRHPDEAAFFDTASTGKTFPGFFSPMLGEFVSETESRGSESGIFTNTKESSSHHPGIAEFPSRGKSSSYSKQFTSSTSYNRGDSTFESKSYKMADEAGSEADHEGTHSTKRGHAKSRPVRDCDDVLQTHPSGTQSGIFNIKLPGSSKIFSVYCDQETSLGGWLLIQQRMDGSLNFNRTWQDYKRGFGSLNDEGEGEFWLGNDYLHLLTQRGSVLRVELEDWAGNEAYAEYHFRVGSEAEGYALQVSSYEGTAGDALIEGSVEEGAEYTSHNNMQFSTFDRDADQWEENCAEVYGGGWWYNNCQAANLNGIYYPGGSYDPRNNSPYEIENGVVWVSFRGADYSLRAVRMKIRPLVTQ
Sequence of fibrinogen, biotin-labeled (P02675 45-491, chain 2 of 3, further chain): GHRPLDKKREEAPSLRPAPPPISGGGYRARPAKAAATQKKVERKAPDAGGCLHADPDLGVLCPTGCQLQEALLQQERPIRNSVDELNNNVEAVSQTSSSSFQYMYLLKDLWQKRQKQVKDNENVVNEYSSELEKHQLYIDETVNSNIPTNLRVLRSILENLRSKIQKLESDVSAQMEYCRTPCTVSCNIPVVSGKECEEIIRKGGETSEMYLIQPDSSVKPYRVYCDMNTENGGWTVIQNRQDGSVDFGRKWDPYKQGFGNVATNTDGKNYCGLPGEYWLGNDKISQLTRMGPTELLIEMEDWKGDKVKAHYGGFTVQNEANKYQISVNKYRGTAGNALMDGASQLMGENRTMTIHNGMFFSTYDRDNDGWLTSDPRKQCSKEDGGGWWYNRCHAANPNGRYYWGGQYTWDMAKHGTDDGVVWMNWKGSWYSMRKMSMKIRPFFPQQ
Sequence of fibrinogen, biotin-labeled (P02679 27-453, chain 3 of 3, further chain): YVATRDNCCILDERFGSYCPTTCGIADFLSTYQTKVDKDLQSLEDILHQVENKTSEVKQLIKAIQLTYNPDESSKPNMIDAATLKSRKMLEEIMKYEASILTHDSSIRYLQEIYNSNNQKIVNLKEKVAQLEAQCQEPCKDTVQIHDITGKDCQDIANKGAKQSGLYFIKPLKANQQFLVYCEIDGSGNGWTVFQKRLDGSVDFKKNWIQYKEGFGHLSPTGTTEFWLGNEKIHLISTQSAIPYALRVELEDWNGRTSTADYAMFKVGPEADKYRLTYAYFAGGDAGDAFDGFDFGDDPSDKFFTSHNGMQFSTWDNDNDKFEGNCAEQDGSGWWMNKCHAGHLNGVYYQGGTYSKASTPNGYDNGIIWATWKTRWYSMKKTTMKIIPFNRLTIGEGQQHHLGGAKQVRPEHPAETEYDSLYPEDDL

| Kd [1] | Kd [2] | Molecule | inhibition of fibrin lysis or plasminogen activation, SDS-PAGE (snFPITE-n1 (snFPITE)) |
| --- | --- | --- | --- |
|  |  | N=C(N)NCCC[C@H](N)C(=O)O [arginine] | Lys or Arg inhibited snFPITE-n1 |
| 0.133 nM | 54.7 nM | small facultative plasminogen-independent thrombolytic enzyme (snFPITE) from Sipunculus nudus |  |
